For three sequences, binding results are on record in paper PMC9430723.

Data set [1] has as its target T1, AlkX (Rv3249c), TetR family regulator (Mycobacterium tuberculosis) (UniProt O05892).
T1 sequence: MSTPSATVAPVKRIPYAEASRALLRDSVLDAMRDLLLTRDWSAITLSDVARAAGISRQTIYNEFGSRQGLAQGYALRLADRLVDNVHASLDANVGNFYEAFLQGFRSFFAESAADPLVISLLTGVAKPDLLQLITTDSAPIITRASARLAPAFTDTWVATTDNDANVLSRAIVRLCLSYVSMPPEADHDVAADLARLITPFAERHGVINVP
The data set is described as follows: EMSA. For orientation: A gel shift assay detects complexes by their altered migration in electrophoresis.

The target of data set [2] is T1, AlkX (Rv3249c), TetR family regulator (Mycobacterium tuberculosis). The data set can be described thus: competition.

Consider “CGGCGATTGACTGTTCTACCGACTTCATGCGCCGTCGACCGGCCATGCACCCGTCCTCTCGCACTCGTTGTGACCGCACAGTACTGGGTACTCTGCGAGGATGACGGGTCGCGTAGGGAACCCGAAGGACCACGCCGTGGTGATCGGAGCTAGCATCGCCGGGTTGTGCGCCGCGCGGGTGCTCTCGGACTTCTACTCCA (double strand) [rv3253c promoter probe]”, for which the binding result in data set [1] is given as “no binding”.
With “TCGGCAAGCTCGAGAGAGCGCGACCCGGAGGTGTTGAACTAGCTTCGCCGCGTATTTACAAATTGCGTTATATGTCTAGACATAAGACGCAAACTGCTCTATTGTCAAATCCCAACGTGGTGTGGCTCATGAGGAGGTTTGGCATATGACCACGCAAATCGGCTCTGGTGGACCCGAAG (double strand) [rv3252c (alkB) promoter probe]”, in data set [1], the binding result is reported as “binds”.
In the case of “TCGGCAAGCTCGAGAGAGCGCGACCCGGAGGTGTTGAACTAGCTTCGCCGCGTATTTACAAATTGCGTTATATGTCTAGACATAAGACGCAAACTGCTCTATTGTCAAATCCCAACGTGGTGTGGCTCATGAGGAGGTTTGGCATATGACCACGCAAATCGGCTCTGGTGGACCCGAAG (double strand) [unlabeled (cold) rv3252c (alkB) promoter probe]”, the binding entry in data set [2] is “binds”.
